Experiments:
pspf_ecoli pspF [1] = target: pspf_ecoli pspF (UniProt P37344)
pspf_ecoli pspF [2] = target: pspf_ecoli pspF (UniProt P37344); remark: listed apart in the source

Sequence of pspf_ecoli pspF (P37344 whole entry): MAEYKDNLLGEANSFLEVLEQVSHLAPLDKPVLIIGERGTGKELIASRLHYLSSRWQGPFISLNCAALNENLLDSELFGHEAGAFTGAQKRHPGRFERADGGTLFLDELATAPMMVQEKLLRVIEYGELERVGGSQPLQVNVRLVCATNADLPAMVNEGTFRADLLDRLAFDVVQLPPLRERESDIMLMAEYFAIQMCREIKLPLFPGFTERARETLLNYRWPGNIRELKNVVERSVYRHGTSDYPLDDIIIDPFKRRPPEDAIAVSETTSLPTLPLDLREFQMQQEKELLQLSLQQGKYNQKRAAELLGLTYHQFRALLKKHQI

Row | Substance | effect of a mutation on the interaction (pspf_ecoli pspF [1]) | effect of a mutation on the interaction (pspf_ecoli pspF [2])
1 | Phage shock protein A (Escherichia coli (strain K12)) (from UniProt P0AFM6) E37A | decreasing interaction strength | with no effect
2 | Phage shock protein A (Escherichia coli (strain K12)) (from UniProt P0AFM6) R59E | with no effect | 

From IntAct's records for PubMed 26235546
